Laboratory results: paper PMC2191694

What was measured:
[1] = biological target: T1, Oct-2 (UniProt P09086 1-479); assay: EMSA
[2] = biological target: T1, Oct-2; assay: competition
[3] = biological target: T1, Oct-2; assay: competition; remark: listed apart in the source

T1 sequence (P09086 whole entry): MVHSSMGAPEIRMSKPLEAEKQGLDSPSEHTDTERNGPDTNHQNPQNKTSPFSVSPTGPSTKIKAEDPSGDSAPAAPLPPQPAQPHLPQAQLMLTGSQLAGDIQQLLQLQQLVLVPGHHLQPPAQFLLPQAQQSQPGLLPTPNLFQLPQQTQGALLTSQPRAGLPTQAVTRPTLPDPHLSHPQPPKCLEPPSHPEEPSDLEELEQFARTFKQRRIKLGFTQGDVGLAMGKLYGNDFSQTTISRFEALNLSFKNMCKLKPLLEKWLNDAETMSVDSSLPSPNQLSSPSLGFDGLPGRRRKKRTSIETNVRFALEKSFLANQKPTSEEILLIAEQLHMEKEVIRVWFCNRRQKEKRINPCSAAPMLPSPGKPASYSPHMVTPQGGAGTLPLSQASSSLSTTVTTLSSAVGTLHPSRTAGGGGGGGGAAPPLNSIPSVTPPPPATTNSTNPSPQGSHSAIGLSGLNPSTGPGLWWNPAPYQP

B1: IL2-deltaOAP/OCT (dsDNA)
DNA 1: ATATGTAAAACATTT
DNA 2: AAATGTTTTACATAT
B1: binds [1].

B2: IL2-mOAP/OCT (dsDNA)
DNA 1: TTGAAAATATTTTTAATATGTAAAACATTT
DNA 2: AAATGTTTTACATATTAAAAATATTTTCAA
B2: binds [2].

B3: IL2-OAP/mOCT (dsDNA)
DNA 1: TTGAAAATATGTGTAATATAATACTCATTT
DNA 2: AAATGAGTATTATATTACACATATTTTCAA
B3: no binding [3].
